Assay results taken from patent US20210101970A1.

Assays:
human CXCR5 (human) [1] = biological target: human CXCR5 (human) (UniProt P32302); experiment: cell-based or functional assay
mouse CXCR5 (mouse) = mouse CXCR5 (mouse) (UniProt Q04683); experiment: FACS on cells expressing the CXCR5 construct
human CXCR5 (human) [2] = biological target: human CXCR5 (human) (UniProt P32302); experiment: FACS on cells expressing the CXCR5 construct

Chain of human CXCR5 (human) (P32302 whole entry): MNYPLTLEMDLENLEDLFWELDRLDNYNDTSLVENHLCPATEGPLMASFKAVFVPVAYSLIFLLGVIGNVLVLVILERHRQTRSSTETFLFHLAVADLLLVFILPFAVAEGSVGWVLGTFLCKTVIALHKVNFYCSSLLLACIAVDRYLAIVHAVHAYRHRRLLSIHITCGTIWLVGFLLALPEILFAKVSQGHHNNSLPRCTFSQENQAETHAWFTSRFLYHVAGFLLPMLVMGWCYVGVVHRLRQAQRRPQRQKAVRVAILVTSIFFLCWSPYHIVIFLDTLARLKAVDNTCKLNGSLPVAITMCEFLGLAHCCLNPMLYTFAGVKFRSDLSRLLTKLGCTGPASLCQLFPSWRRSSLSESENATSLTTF
Chain of mouse CXCR5 (mouse) (Q04683 whole entry): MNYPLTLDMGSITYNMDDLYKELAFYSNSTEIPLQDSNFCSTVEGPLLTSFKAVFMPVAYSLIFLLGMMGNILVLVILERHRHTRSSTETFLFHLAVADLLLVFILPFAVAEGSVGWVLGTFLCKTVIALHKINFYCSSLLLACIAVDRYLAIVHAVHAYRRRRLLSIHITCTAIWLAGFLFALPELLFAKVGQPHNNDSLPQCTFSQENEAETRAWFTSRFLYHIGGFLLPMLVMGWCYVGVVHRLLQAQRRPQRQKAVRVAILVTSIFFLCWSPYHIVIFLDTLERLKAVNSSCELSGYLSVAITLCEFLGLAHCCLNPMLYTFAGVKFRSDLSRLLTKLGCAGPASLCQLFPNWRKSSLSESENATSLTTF

Row | Substance | IC80, inhibition of forskolin-triggered cAMP production (human CXCR5 (human) [1]) [nM] | GMFI (mouse CXCR5 (mouse)) [GMFI] | GMFI (human CXCR5 (human) [2]) [GMFI]
1 | recombinant hCXCL13 (from UniProt O43927 23-109) (ligand) | 0.6 | – | –
2 | rat anti-mouse CXCR5 (catalog MAB6198, R&D systems) (antibody) | – | 12500 | 2460
3 | rabbit anti-human CXCR5 (catalog ab46218, Abcam) (antibody) | – | 1040 | 18600
